Data on 19 sequences can be found in the DeepSol protein solubility set.

The nature of this data set: soluble on expression in E. coli; label from the status in PepcDB or PDB records.
Regarding “SDPEISEQDEEKKKYTSVCVGREEDIRKSERMTAVVHDREVVIFYHKGEYHAMDIRCYHSGGPLHLGEIEDFNGQSCIVCPWHKYKITLATGEGLYQSINPKDPSAKPKWCSKGVKQRIHTVKVDNGNIYVTLSKEPFKCDSDYYATGEFKVIQSSS”, the “soluble on expression in E. coli” value is “soluble”. As for “MAADPVFKEALQCIRCASCTNVCPVFQLVSGQVYGYIYNGGIGSVLTAFFNSLEDAVDPQSLCIGCRRCAEVCPAKINIPDLVLKLRERVVTKQGLEHHHHHH”, the “soluble on expression in E. coli” value was “not soluble”.

Consider “MSCSSSSMLFLVLIATTVLIAESRVFYNRFDGGLSSDRFMEQKRDGAEASYDYDANQVIRNTMKRNRQCLLNAGLSQGCDFSDLLHAQTQARKFMSFAGPGK”, for which the “soluble on expression in E. coli” value was “not soluble”. For “MGSDKIHHHHHHTACETDNDSNPILNEPDTFTLNTPAYAANNVYDLKNAQTVELTCSQPDYGFPAATTYTVQASFEQDFIEATDESKANYTVLESTSPTAKINVDASELNNALLDLWTAVNGEQAELPTEPVAVYIRLKANITSSGKGVCFSNVIELPNVLISKSTSSLTPPKTMFIVGSMLDTDWKVWKPMAGVYGMDGQFYSMIYFDANSEFKFGTKENEYIGINDNRVTVTDKAGAGVSGSDNFVVENAGWYLFYVKAAVKGDDYQFTITFYPAEVYLFGNTTGGSWAFNDEWKFTVPATKDGNFVSPAMTASGEVRMCFKTDLDWWRTEFTLHDGEIFYRDFNLIDSWTEKGDGYSIQGSAGNVIHLNFTAGTGEKK”, the “soluble on expression in E. coli” value is given as “not soluble”. “MDAQYDISFADVEKAHINIRDSIHLTPVLTSSILNQLTGRNLFFKCELFQKTGSFKIRGALNAVRSLVPDALERKPKAVVTHSSGNHGQALTYAAKLEGIPAYIVVPQTAPDCKKLAIQAYGASIVYCEPSDESRENVAKRVTEETEGIMVHPNQEPAVIAGQGTIALEVLNQVPLVDALVVPVGGGGMLAGIAITVKALKPSVKVYAAEPSNADDCYQSKLKGKLMPNLYPPETIADGVKSSIGLNTWPIIRDLVDDIFTVTEDEIKCATQLVWERMKLLIEPTAGVGVAAVLSQHFQTVSPEVKNICIVLSGGNVDLTSSITWVKQAERPASYQSVSVHHHHHH”: the “soluble on expression in E. coli” value was “soluble”. Under “MKLEVTPKAQQWFKEETGVQPETGIRFFGKIYGKTPVHDGFSIAMSVEAPDEPMIKENLDGITYFIEETDDWFFKGYDLIVDYDEKNDEPRYQFEANQEDLTK” stands “not soluble”. Under “MSLAVLDSGGGSALLKMGRQCEVGSQAYDSSTVSSNLQKAETNGPVGLAGTAEQEQQYDVHGNVISAAVYQKFHVYGPEDMVFDGDAGGLTIPGAGAFWGTLFTSDLQRLYKDTVSFQYNALGTYLNINFFDSSGGFLGHIQAGAVSAVVGVGGGSGSWHNWEVAEGHHHHHH” stands “soluble”; under “MGSDKIHHHHHHMNKELFCIENLRVAYPQRSGEELQWAIDDVSFTLQPGERMGLVGESGCGKSTLGRAAMRLLPPSSLVEGRVTFQGKSVFDLTPNELRKFRGEAVALIFQDPMTRLDPLMTIGNHCIETLQAHAPELSAKEAKEKALATLEKVKIPASRWGQYPHEFSGGMRQRVAIALALLLNPKLIVADEPTTSLDVTVSAQILQELTRLCSEENMALLLISHDLAMVAEYCSRIGVMYNGKMVEMGTTESVFKNPQHEYTRSLLKAALHIQAVDEGSSEASQSPIPSPQSPILRITELKQYYTIEPNFVERLFKAESQTIKAVDGINLELYPGEILGLVGESGCGKSTLSRTILQLIRPTSGKVEFLGQDLTKLSRQEIRACRRQIQMVFQDPHACLNPAMTVGESIADPLLIHHLADAAKAKEQVLWMLQKVGLTPPEVYYQRYPSDLSGGQQQRVAIARALITRPKMLICDEPVSMLDASVQSQVLDLMLQLKEEFELTYLFITHDLWLARFLCDRIAVMHGGKIVELGETKQIFAHPQHPYTQTLLAAAPLLARA”, “not soluble”; under “MAGNSNLMIKTLRKISEILKKPPKASSESDVTVRDKACQALGSIKRLIGDTITAFIGPISTETAKIEKINQYQQEAAEEFKKFQETQPKAGGDGGAENSAENLDENQENSPEKAEKPQVLDAWELLEPEDCSKKIDKSVETQLIDKNWKERLAGAENVKKSMENAGRIEISERLTEISKLLMKIVEKDVNVNVGAISAQILAEIAKKSRFSFAPLALRAFPVVFDKLKDKKAILRDALVEFCDEAANTTPLSAYSEAVITALSNKNPQARQQTALFLSRFFAKNDPKTVETEAVKQLAEHILKTSNDADKEVREAALRIVAAVQKCLGEGVAKRLLAEVYDDKLKAEKLPPLIEELEKEFGSSASPEMLRLAKHYKIGASSTSAPPKTTAAGAPKRPSSAVAPRRAPPASAAPTRRAPSPKAPVVAPTRRAPSPKAPVASVAPVKPKPFVARPAPSFGKPRAAVAPARAPQITQRAPAATRPSTSAIRVTPIAPNVVRNGAPTTAQQAPRKPIGIARPQTSSGIAAPGAPRSRIAMPTTSSSSLARRPGSASSSVPRVPTGAASMTSSSRIRPPSRPGSRPGSRNE”, “not soluble”. Regarding “MRIWNRIRCISTIRKNPTCQDVKAPLVSSQVFDPDVWSWNSAPESSLDLPIDSSPNFSMPPATSSETEFAENEESTSSSDDKKKRSEVIEENRSDGHAPIKSALSILMRSLQKSSSMTTSLSDIDVTLFNFHSTKFAERLLNRNVSSVVIVESSHVFSKNAKKFASEFSNVSAYRADIYTLMGVGRKKTAQFPRKMMFADFGKNETPEQYENIHPLTLTSAESSSNSEHLHAKFRRPHLLGVLPTPTIQRTILDSMIQHVLLHHSGNDEDTIFRYGDTNLLTFLGSGILAQYTCSTDNRLNFLSHQHRRHSALFNKLFEVKMLQTRQSEDPETAEIPIGHPPTSFHPLLPTAKKITHEKKLSDVNLTNGLQYPVQILPQKHLKIGGNEVTTENGMGRMLVDYACFMTQIGRQPNAKAVDQVVRLLWPESALSIPADILGDHKIGQLPNDHLDVIFQHVHEELHNTSIAKTYCNELKIKRAI”, the “soluble on expression in E. coli” value is given as “not soluble”.

Consider “YHLSLKQVNRLFDDDMVDFGEAALRLLDLATEDQAGEDGSITEIIERSREAIQGLPLLRRESALGYALWRDGQPLLSSLNLPPEITAQGPGFSTVEAQGTHWRVLQLNIDGFQIWISENLIYRQHTMNLL”, for which the “soluble on expression in E. coli” value was “not soluble”. “MQGDAAEKARLRGERLAARDALTPAERQQKSLSMTAHGVSGIPFAPGTVISGFMPIRSEVDTRPLMEALRARDGRLVLPVVLDQETIVFRVFEADTPLVKTGFGTTGPGEDAEVLDPHILLVPLSVFDGEGQRIGYGAGHYDRAIARLHAKGRQPVLIGIAFDCQEVASVPAEPHDVALHAVLTESGLRWFSAQRLEHHHHHH”: the “soluble on expression in E. coli” value was “not soluble”. As for “MGSDKIHHHHHHMTETTLPPLIQQMLQPGFYPHEVTEPIQLIQTHVSSVLLTGEYAYKLKKPVNFGFLDFSTLEKRQHFCQEELRLNQRGAAELYLEVLPISLVGEQYTLGGTGEAVEYVLKMRQFPQDGLFSELFAQGKLTESHLEELGKVVAQYHAKTETNDYIRSFGEVPQVQAAFDENYQQTEKYIGGPQTQLQFDETKAYTERFFAEKQELFQRRIQNNYIRECHGDLHLRNICLWQDKILLFDCIEFNEPFRFVDVMFDVAYAVMDLDAQQRPDLSNAYLNTYLEQTGDWEGLEVLPIYLNRQSYVRAKVTSFLLDDPSVPATVKEEATKTASTYYKLAWEYTKPKQGKLILMSGLSGSGKSTTAKYLARQLDAIQIRSDAVRKHLGGISLWERGGDDLYTPEMTQKTYARLLNLGTILANQGYTVILDAKYDKQNLRQEAIAQAEKHHLPLQIIHCTAPIEVIQERLIKRTGDIADATVDLLSSQLQQTEPFTDQEKPYVQTWDTTQPPHVIGNR”, the “soluble on expression in E. coli” value was “not soluble”.

Consider “MGSDKIHHHHHHMKIQPLPPLNSLHAFESAARHLSFTLAAKELNVTQGAISRQVRLLEDYLGKALFTRTTRSMSLTPTGAQYYETVRECMLHLARATGDIRQWQGNQQVTVATSTAMASLWLLPKVSEFQSAHENIDLRIIAHDHVKDYARLDSDLALYYCNPPPKDMAVTPLFSEEIFLVCSPAYLARHPQLSSIEGLSSCTWLWLEDSQRDWVGWPEWFKRLGYEPMTPKHRVNINSYGMLIQSAISGQGVALAWGNLVDDALSTGALVKPNDVVLQTDAKFCLLESSTERGPRESVRLFRDWLMALPSVQK”, for which the “soluble on expression in E. coli” value is given as “not soluble”. The value for “MRGRAVSRNAIIGIVHRNAKLAAIGFGRAKSSPASEGSSTYTPEEIKLVADCLKAKRNYVQIAQRLALKSGRIISRFGVKSLIRRTPELNEIGFRGKKGRPSDKKKAAPGQLPGRLFIAATADIDRDPSAFDYLTRPAVRALASQPHFAAMRFVDCLPARCRAPLSYDLEERPGPDMLCCGHLAMPSRSYCAYHEIRLTARKAEFIAEAALEHHHHHH” was “not soluble”; that for “MAKRGRKRKVSKDEENTTPEPEMKKKADEKVVELDEKDWMPSAALEFFENENFKEIVENLSHLDNSVTLVGPFRKLRGESDADGTDLIMLDREMTDLPEMQTFMKCSHGRYAFWRDKPNDKKPVIVFMDLKTIPDLSVVGNEIRHAILDFCTRCSKCIDCSAKSKAANSKIQSFFTPSKISSEVKEVLKHREKTTVRGISGPGMLIDVVPTGNSGKKNKKNERTGYRDLSKNAYCINIEHLVRSLRLCQTKEQEEKVLDFVYGLMNEINICNDEGDFGNGLELGHILFLANMKAVADPMMITLHIAYKNLHRPDFAKILDLTLSLRDQQEEAT” was “soluble”. For “AMEVHPISEFASPFEVFKCIERDFKVAGLLESIGGPQYKARYSVIAWSTNGYLKIHDDPVNILNGYLKDLKLADIPGLFKGGMIGYISYDAVRFWEKIRDLKPAAEDWPYAEFFTPDNIIIYDHNEGKVYVNADLSSVGGCGDIGEFKVSFYDESLNKNSYERIVSESLEYIRSGYIFQVVLSRFYRYIFSGDPLRIYYNLRRINPSPYMFYLKFDEKYLIGSSPELLFRVQDNIVETYPIAGTRPRGADQEEDLKLELELMNSEKDKAEHLMLVDLARNDLGKVCVPGTVKVPELMYVEKYSHVQHIVSKVIGTLKKKYNALNVLSATFPAGTVSGAPKPMAMNIIETLEEYKRGPYAGAVGFISADGNAEFAIAIRTAFLNKELLRIHAGAGIVYDSNPESEYFETEHKLKALKTAIGVR”, the “soluble on expression in E. coli” value is “soluble”.

Consider “MAHHHHHHMGTLEAQTQGPGSMSVFSGFPASPPDAILNLTVLYNADTNPKKVNLGVGAYRDESGKPWILPAVKEAEAIISSDLSKYNKEYPPVAGFPLFLEAAQFLMFGKDSKAAQEGRIASCQSLSGTGSLHIGFEFLHLWMPKAEFYMPSTTWPNHYGIYDKVFNKLKVPYKEYTYLRKDGELEIDFSNTKKDIQSAPEKSIFLFHACAHNPSGIDFTEAQWKELLPIMKEKKHIAFFDSAYQGFATGSFEADAFAVRMFVDAGVEVLVAQSFSKNFGLYGERIGCLHVVHAGVEGSVEKNKALSAAMVSGMTLQIRKTWSMSAIHGAYIVQVIVHDKRLLQMFYDNVKEMSARIHRMRSLLHASLAKRKTPGPGSKGTWDHILTAIGMFTFTGLTPEHVDYLKEKWSIYLVKAGGRMSMCGLTESNCDYVAEAIHDAVTKLPFKK”, for which the “soluble on expression in E. coli” value is listed as “soluble”.

Take “AHHHHHHGSKVIASAPAKVILFGEHSVVYGKPAIAAAIDLRTFVEAELIREKKIRIEAHDIKVPGLTVSFSENEIYFETDYGKAAEVLSYVREAINLVLEEADKKNVGIKVSITSQIPVGAGLGSSAAVAVATIGAVSKLLGLELSKEEIAKMGHKTELLVQGASSGIDPTVSAIGGFIFYEKGKFEHLPFMELPIVVGYTGSSGPTKELVAMVRKRYEEMPELIVPILEAMGKVVEKAKDVILSNVDKEEKFERLGVLMNINHGLLDALGVSTKKLSELVYAARVAGALGAKITGAGGGGCMYALAPNKQREVATAIRIAGGTPMITEISREGLKIEEVIK”: the “soluble on expression in E. coli” value is reported as “not soluble”.
